Test results taken from paper PMC10454913, “Neurohypophysial and paracrine vasopressinergic signaling regulates aquaporin trafficking to hydrate marine teleost oocytes” (Frontiers in Endocrinology, 2023).
Ends that are not written are not given here.

Columns and labels:
seabream Oxtrb = seabream Oxtrb (Sparus aurata, UniProt R9WVY7); test: Activation of seabream Oxtrb in transfected HEK293T cells (pCRE-luc / pSRE-luc reporters, Fluo-4 AM Ca2+); format: cell-based, gilthead seabream (Sparus aurata)
[1] = test system: X. laevis oocytes expressing the seabream Oxtrb and Aqp1aa; settings: not told

CYISNCPIG-NH2 (ends and bridges not checked) [Oxt]
pCRE-mediated luciferase activity (cAMP) (seabream Oxtrb; HEK293T cells expressing Oxtrb): did not induce measurable increases
pSRE-induced luciferase activity (PKC activation) (seabream Oxtrb; HEK293T cells expressing Oxtrb, 10^-12 to 10^-5 M): concentration-dependent increase
intracellular Ca2+ concentration ([Ca2+]i) (seabream Oxtrb; HEK293T cells expressing Oxtrb, Fluo-4 AM): concentration-dependent increase
EC50 (seabream Oxtrb; Oxt on Oxtrb, HEK293T, read-out: approximate EC50 on cognate receptor): ~10 nM
oocyte permeability (P f) and channel accumulation in the plasma membrane [1]: reduction of oocyte permeability
